# Columns and labels:
# [1] = biological target: UKNP2.2.1 E2E1-I53-50A trimer; experiment: ELISA; conditions: read off a plot
# [2] = biological target: UKNP5.2.1 E2E1-I53-50A trimer; experiment: ELISA; conditions: read off a plot
# [3] = biological target: UKNP5.2.1 E2E1-I53-50A trimer (permuted HCV envelope glycoprotein, genotype 5) (hepatitis C virus, strain UKNP5.2.1 (genotype 5))
substance,measurement,setting,value
gl-AR3C F54L; G50R,other: AUC,[1]; parent: est. 2.1,0.001
same,other: AUC,[2]; parent: est. 0.65,0.001
gl-HEPC74 F54L,other: AUC,[1]; parent: est. 1.0,1.9
same,other: AUC,[2]; parent: est. 0.010,0.03
gl-HEPC74 F54L; G50R,other: AUC,[1]; parent: est. 1.0,12
same,other: AUC,[2]; parent: est. 0.010,0.11
"AR3C (mature bNAb, IgG) (antibody)","Supplementary Figure 7b: IC50 of neutralization of UKNP5.2.1 HCVpp (% infectivity, serial dilution of IgG), AR3C IgG",[3],0.07 µg/mL
gl-AR3C G50R,other: AUC,[1]; parent: est. 2.1,0.001
same,other: AUC,[2]; parent: est. 0.65,0.001
gl-AR3A F54L; G50R,other: AUC,[1]; parent: est. 0.001,0.001
same,other: AUC,[2]; parent: est. 3.4,0.001
gl-HEPC74 G50R,other: AUC,[1]; parent: est. 1.0,7.4
same,other: AUC,[2]; parent: est. 0.010,0.04
gl-AR3A F54L,other: AUC,[1]; parent: est. 0.001,0.001
same,other: AUC,[2]; parent: est. 3.4,1.4
"HEPC3 (mature bNAb, IgG) (antibody)","Supplementary Figure 7b: IC50 of neutralization of UKNP5.2.1 HCVpp (% infectivity, serial dilution of IgG), HEPC3 IgG",[3],0.14 µg/mL
gl-AR3A G50R,other: AUC,[1]; parent: est. 0.001,0.001
same,other: AUC,[2]; parent: est. 3.4,0.001
gl-AR3C F54L,other: AUC,[1]; parent: est. 2.1,18
same,other: AUC,[2]; parent: est. 0.65,4.8

# Source: publication PMC10328973
